# Test: yeast display, Sf9 membrane polyspecificity reagent, FACS + sequencing; frameworks hold sequencing errors
# In short: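 Nanobodies from a synthetic yeast display library (Saccharomyces cerevisiae BJ5465), induced 36–48 hours with galactose, were stained 1 hour at 4 °C with 10% biotinylated, detergent-solubilized Sf9 membrane reagent, enriched on streptavidin microbeads, then FACS-sorted. Anti-HA (expression) and streptavidin (reagent binding) fluorescence set low and high (top ~1%) gates. Polyreactivity labels come from the gate of origin. Genes were colony-PCR amplified, MiSeq 2 × 250 sequenced and filtered by CDR length.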
row,Sequence,polyreactivity (PSR sort gate)
1,QVQLEESGGGLVQAGGSLRLSCAASGSIFVYYARGWYRQAPGKERELVATISRRGGSTYYADSVKGRFTISRDNAKNTVYLQMTSLKPEDTAVDYCNAAPSPVGSARSSLTRYTGMDYWGQGTQVSVSS,high polyreactivity
2,QVQLEESGGGLVQAGGSLRLSCAASGSIFYSNAMGWYRQAPGKERELVATIRSGGTTYYADSVKGRFTISRDNAKNTVYLQMNSLKPEDTAVYYCAKRYGVKYWGQGTQVTVES,high polyreactivity
3,QVQLEESGGGLVQAGGSLRLSCAASGSIIYAYAMGWSRQAPGKERELVDGIRDGGSTYYADSVKWRFTISRDNAKNTVYLQMNSLKPADTAVYYCAAGPRIRDDYWGQGTQVTVSS,low polyreactivity
4,QVQLEESGGGLVQAGGSLRLSCAASGSILVAYAMGWYRQAPGKERELVAAISSVGNTYYADSVKGRFTISRDNAKNTVYLQMNSLKPEDTAVYYCNAVYRVWYAEWSTVGSPHDYWGQGTQVTVSS,low polyreactivity
5,QVQLEESGGGLVQAGGSLRLSCAASGSILYVYAMGWSRQAPGKERELVAAMTRSGDTTSYADSVKGRFTISRDFAKNTVYLQLNSLKPEDTAVYYCDAAERRYGRGYGYWGQCTQVTVSS,high polyreactivity
6,QVQLEESGGGLVQAGGSLRLSCAASGSNFSRYAMGWYRQAPGKERELVAAISWAGNTYYADSVKGRFTISRDNAKNTVYLQMNSLKPEDTAVYYCNADRVRYLFTRYDYWGQGTQVTVSS,high polyreactivity
7,QVQLEESGGGLVQAGGSLRLSCAASGSTFHTYAMGWYRQAPGKERELVASISYGVTTYYADSVKGRFTISRDNAKNTVYLQMNSLTPEDTAVYYCAREGYNWVYLSYGYWGQGTQVTVSS,low polyreactivity
8,QVQLEESGGGLVQAGGSLRLSCAASGSTFINNAMGWYRQPPGKERELVAAISSGGSTYYADSVKGRFTISRDNAKNTVYLEMNSLKPEDTAVYYCAAEFVETKYPEMDYWGQGTQVTVSS,low polyreactivity
9,QVQLEESGGGLVQAGGSLRLSCAASGSTFLQYPMGWYRQATGKQRELVAAISWRAGSTYYADSVKGRFTISRDTAKNTVYLQMNTLKPEDTAVNYCDADGNRWRYELDDYDYWGQGTQVTGSS,low polyreactivity
10,QVQLEESGGGLVQAGGSLRLSCAASGSTFPFYAMGWYRQAPGKERELVAAISRGGSTNYADSVKGRFTISRDNAKNTVYLQMNSLKPEDTAVYYCNADVFWWYPYDYWGQGTQVTVSS,high polyreactivity
11,QVQLEESGGGLVQAGGSLRLSCAASGSTFRLYAMGWYRQAPGKERELVATITNGGNTYYADSVKGRFTISRDNAKNTVYLQMNSLKPEDTAVYYCAKRLSRRYDYWGQGTQGTVSS,low polyreactivity
12,QVQLEESGGGLVQAGGSLRLSCAASGSTFSGYAMGWYIPAPGKERELVATIRRGGSTYADSVKGRFTISRDNAKNTVYLQMNSLKPEDTAVYYCAADAYVSSQPMDYWGQGTQVTVSS,high polyreactivity
13,QVQLEESGGGLVQAGGSLRLSCAASGSTFVGNAMGWYRQAPGKERELVAAISFSGGSTYYADSVKGRFTISRDNAKNTVYLQMNSLKPEDTAVYYCAKKTRYRSRGMNYWGQGTQVTVSS,high polyreactivity
14,QVQLEESGGGLVQAGGSLRLSCAASGSTFYLYDMGWYRQAPGKERELVAVISWSGGSTSYADSVKGRFTISRDNAKNTIYLQMNSLKPEDTAVYYCNTDFYHWGQGTQVTVSS,low polyreactivity
15,QVQLEESGGGLVQAGGSLRLSCAASGSTIPPYAMGWYRQAPRKERELVAAITSGGSTYYADSVKGRFTISRDNAKNTVYLQMNSLKPEDTAVYYCAASWDPWEYDYWGQGTQVTVSS,low polyreactivity
16,QVQLEESGGGLVQAGGSLRLSCAASGSTLIYNAMGWYRPAPGKERELVAAISASGTRTYYADSVKGRFTISRDNAKNTVYLQMNSLKPEDTAVYYCNALRRAPRAEYYYWGQGTQVTVSS,high polyreactivity
17,QVQLEESGGGLVQAGGSLRLSCAASVFPYYAMRWYRQATGKERELVAAITWSGADTYYADSVKGRFTISRDNAKNTVYLQMNSLKPEDTAVYYCAAEYSPIRDYEYWGQGTQVTVSS,low polyreactivity
18,QVQLEESGGGLVQAGGSLRLSCAASYAMGWYRQAPGKERELVATITRTDRTNYADSVKGRFTISRDNAKNTVYLQMNSLKPEDTAVYYCNKVDWSAPGDSPKYGYWGQGTQVTVSS,low polyreactivity
19,QVQLEESGGGLVQAGGSLRLSCAATGRIFSYAMGWYRQAPGKETELVAGISRSGGSTYYADSVKGRFTISSDNAKITVYLQMNSVKPEDTAVYYCARYDRGGRHYYYWGQGTQVTVSS,high polyreactivity
20,QVQLEESGGGLVQAGGSLRLSCAATGSLFYTYSMGWYRQAPGKERELGASIRSDGITNYADSVKGRFTISRDNAKNTVYLQMNSLKPEDTAVYYCAARIIWSTNYYYWSGYNSWGQGTQVTVSS,high polyreactivity

# Reference: the nanobody polyreactivity screen of Harvey et al. (2022)
